Experimental data: PMC9352680, “A comprehensive thermodynamic model for RNA binding by the Saccharomyces cerevisiae Pumilio protein PUF4”
Numbering of substitutions follows the chain as printed. Names may count otherwise.

T1: PUF4 RNA-binding domain (Saccharomyces cerevisiae, UniProt P25339 537-888)
T1 sequence: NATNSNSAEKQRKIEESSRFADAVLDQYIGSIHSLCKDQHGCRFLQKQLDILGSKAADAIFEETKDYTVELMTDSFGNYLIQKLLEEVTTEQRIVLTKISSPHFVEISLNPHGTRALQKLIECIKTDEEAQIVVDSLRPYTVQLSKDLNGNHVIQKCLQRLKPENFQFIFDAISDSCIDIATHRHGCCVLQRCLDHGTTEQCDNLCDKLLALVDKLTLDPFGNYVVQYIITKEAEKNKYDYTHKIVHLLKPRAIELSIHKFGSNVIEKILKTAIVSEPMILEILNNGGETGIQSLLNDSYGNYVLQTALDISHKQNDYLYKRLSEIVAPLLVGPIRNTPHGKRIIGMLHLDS

B1: Ie_S1_P4E.1_K4.1_C4.1_H4.1_[+4TCT]_A4.1_F4.1_T4.1 (ssRNA)
RNA: UCUCUUUGUAUCUUAUUAUCUCUU
B2: Ie_S1_P4E.1_K4.1_C4.1_H4.1_A4.1_[+7TT]_F4.1_T4.1 (ssRNA)
RNA: UCUCUUUGUAUAUUUUAUCUCUU
B3: Ie_S1_P4E.1_K4.1_C4.1_H4.1_A4.1_[+5CTC]_F4.1_T4.1 (ssRNA)
RNA: UCUCUUUGUAUCUCAUUAUCUCUU
B4: Ie_S1_P4E.1_K4.1_C4.1_H4.1_A4.1_[+6CTC]_F4.1_T4.1 (ssRNA)
RNA: UCUCUUUGUAUACUCUUAUCUCUU
B5: Ie_S1_P4E.1_K4.1_C4.1_H4.1_[+4TT]_A4.1_F4.1_T4.1 (ssRNA)
RNA: UCUCUUUGUAUUUAUUAUCUCUU
B6: Ie_S1_P4E.1_K4.1_C4.1_H4.1_A4.1_[+7CCT]_F4.1_T4.1 (ssRNA)
RNA: UCUCUUUGUAUAUCCUUAUCUCUU
B7: Ie_S1_P4E.1_K4.1_C4.1_H4.1_A4.1_[+7CT]_F4.1_T4.1 (ssRNA)
RNA: UCUCUUUGUAUAUCUUAUCUCUU
B8: Ie_S1_P5E.1_K5.1_C5.1_H5.1_A5.1_[+5CTC]_F5.1_T5.1 (ssRNA)
RNA: UCUCUUUGUAUCUCUAUUAUCUCUU
B9: Ie_S1_P4E.1_K4.1_C4.1_H4.1_A4.1_[+5CCTC]_F4.1_T4.1 (ssRNA)
RNA: UCUCUUUGUAUCCUCAUUAUCUCUU
B10: Ie_S1_P4E.1_K4.1_C4.1_H4.1_A4.1_F4.1_[+8CT]_T4.1 (ssRNA)
RNA: UCUCUUUGUAUAUUCUAUCUCUU
B11: Ie_S1_P5E.1_K5.1_C5.1_H5.1_A5.1_[+5TC]_F5.1_T5.1 (ssRNA)
RNA: UCUCUUUGUAUUCUAUUAUCUCUU
B12: Ie_S1_P4E.1_K4.1_C4.1_H4.1_A4.1_[+6CCCT]_F4.1_T4.1 (ssRNA)
RNA: UCUCUUUGUAUACCCUUUAUCUCUU
B13: Ie_S1_P4E.1_K4.1_C4.1_H4.1_A4.1_[+7CC]_F4.1_T4.1 (ssRNA)
RNA: UCUCUUUGUAUAUCCUAUCUCUU
B14: Ie_S1_P5E.1_K5.1_C5.1_H5.1_[+4C]_A5.1_F5.1_T5.1 (ssRNA)
RNA: UCUCUUUGUACUUAUUAUCUCUU
B15: Ie_S1_P5E.1_K5.1_C5.1_H5.1_A5.1_[+5TCTC]_F5.1_T5.1 (ssRNA)
RNA: UCUCUUUGUAUUCUCUAUUAUCUCUU
B16: Ie_S1_P4E.1_K4.1_C4.1_H4.1_A4.1_[+6CTCTC]_F4.1_T4.1 (ssRNA)
RNA: UCUCUUUGUAUACUCUCUUAUCUCUU
B17: Ie_S1_P4E.1_K4.1_C4.1_H4.1_A4.1_[+6CCTC]_F4.1_T4.1 (ssRNA)
RNA: UCUCUUUGUAUACCUCUUAUCUCUU
B18: Ie_S1_P4E.1_K4.1_C4.1_H4.1_A4.1_[+6CCTCT]_F4.1_T4.1 (ssRNA)
RNA: UCUCUUUGUAUACCUCUUUAUCUCUU
B19: Ie_S1_P4E.1_K4.1_C4.1_H4.1_A4.1_[+7CCC]_F4.1_T4.1 (ssRNA)
RNA: UCUCUUUGUAUAUCCCUAUCUCUU
B20: Ie_S1_P4E.1_K4.1_C4.1_H4.1_A4.1_[+6CTT]_F4.1_T4.1 (ssRNA)
RNA: UCUCUUUGUAUACUUUUAUCUCUU
B21: Ie_S1_P4E.1_K4.1_C4.1_H4.1_A4.1_[+5CCCTT]_F4.1_T4.1 (ssRNA)
RNA: UCUCUUUGUAUCCCUUAUUAUCUCUU
B22: Ie_S1_P4E.1_K4.1_C4.1_H4.1_A4.1_[+5TTCC]_F4.1_T4.1 (ssRNA)
RNA: UCUCUUUGUAUUUCCAUUAUCUCUU
B23: Ie_S1_P4E.1_K4.1_C4.1_H4.1_[+4CCTCT]_A4.1_F4.1_T4.1 (ssRNA)
RNA: UCUCUUUGUACCUCUUAUUAUCUCUU
B24: Ie_S1_P4E.1_K4.1_C4.1_H4.1_[+4TCC]_A4.1_F4.1_T4.1 (ssRNA)
RNA: UCUCUUUGUAUCCUAUUAUCUCUU
B25: Ie_S1_P5E.1_K5.1_C5.1_H5.1_A5.1_[+5TCC]_F5.1_T5.1 (ssRNA)
RNA: UCUCUUUGUAUUCCUAUUAUCUCUU
B26: Ie_S1_P4E.1_K4.1_C4.1_H4.1_A4.1_[+5TTC]_F4.1_T4.1 (ssRNA)
RNA: UCUCUUUGUAUUUCAUUAUCUCUU
B27: Ie_S1_P4E.1_K4.1_C4.1_H4.1_A4.1_[+7TTT]_F4.1_T4.1 (ssRNA)
RNA: UCUCUUUGUAUAUUUUUAUCUCUU
B28: Ie_S1_P4E.1_K4.1_C4.1_H4.1_[+4TTCCT]_A4.1_F4.1_T4.1 (ssRNA)
RNA: UCUCUUUGUAUUCCUUAUUAUCUCUU
B29: Ie_S1_P4E.1_K4.1_C4.1_H4.1_A4.1_[+6TCTCT]_F4.1_T4.1 (ssRNA)
RNA: UCUCUUUGUAUAUCUCUUUAUCUCUU
B30: Ie_S1_P5E.1_K5.1_C5.1_H5.1_A5.1_[+5CCC]_F5.1_T5.1 (ssRNA)
RNA: UCUCUUUGUAUCCCUAUUAUCUCUU
B31: Ie_S1_P4E.1_K4.1_C4.1_H4.1_A4.1_[+6TCTC]_F4.1_T4.1 (ssRNA)
RNA: UCUCUUUGUAUAUCUCUUAUCUCUU
B32: Ie_S1_P4E.1_K4.1_C4.1_H4.1_A4.1_[+6TTC]_F4.1_T4.1 (ssRNA)
RNA: UCUCUUUGUAUAUUCUUAUCUCUU
B33: Ie_S1_P4E.1_K4.1_C4.1_H4.1_A4.1_[+6CC]_F4.1_T4.1 (ssRNA)
RNA: UCUCUUUGUAUACCUUAUCUCUU
B34: Ie_S1_P4E.1_K4.1_C4.1_H4.1_A4.1_[+6TCT]_F4.1_T4.1 (ssRNA)
RNA: UCUCUUUGUAUAUCUUUAUCUCUU
B35: Ie_S1_P5E.1_K5.1_C5.1_H5.1_A5.1_[+5TTCC]_F5.1_T5.1 (ssRNA)
RNA: UCUCUUUGUAUUUCCUAUUAUCUCUU
B36: Ie_S1_P5E.1_K5.1_C5.1_H5.1_[+4CTC]_A5.1_F5.1_T5.1 (ssRNA)
RNA: UCUCUUUGUACUCUUAUUAUCUCUU
B37: Ie_S1_P5E.1_K5.1_C5.1_H5.1_A5.1_[+5CCTC]_F5.1_T5.1 (ssRNA)
RNA: UCUCUUUGUAUCCUCUAUUAUCUCUU
B38: Ie_S1_P4E.1_K4.1_C4.1_H4.1_[+4CCTC]_A4.1_F4.1_T4.1 (ssRNA)
RNA: UCUCUUUGUACCUCUAUUAUCUCUU
B39: Ie_S1_P4E.1_K4.1_C4.1_H4.1_A4.1_[+5TCC]_F4.1_T4.1 (ssRNA)
RNA: UCUCUUUGUAUUCCAUUAUCUCUU
B40: If_S1_P5E.1_K5.1_C5.1_H5.1_A5.1_F5.1_T5.1 (ssRNA)
RNA: UCUCUUUGUAUUAUUAUCUCUU
B41: Ie_S1_P5E.1_K5.1_C5.1_H5.1_[+4TCTC]_A5.1_F5.1_T5.1 (ssRNA)
RNA: UCUCUUUGUAUCUCUUAUUAUCUCUU
B42: Ie_S1_P5E.1_K5.1_C5.1_H5.1_A5.1_[+5C]_F5.1_T5.1 (ssRNA)
RNA: UCUCUUUGUAUCUAUUAUCUCUU
B43: Ie_S1_P4E.1_K4.1_C4.1_H4.1_A4.1_[+6CCC]_F4.1_T4.1 (ssRNA)
RNA: UCUCUUUGUAUACCCUUAUCUCUU
B44: Ie_S1_P5E.1_K5.1_C5.1_H5.1_[+4CT]_A5.1_F5.1_T5.1 (ssRNA)
RNA: UCUCUUUGUACUUUAUUAUCUCUU
B45: Ie_S1_P5E.1_K5.1_C5.1_H5.1_[+4CCCT]_A5.1_F5.1_T5.1 (ssRNA)
RNA: UCUCUUUGUACCCUUUAUUAUCUCUU
B46: Ie_S1_P4E.1_K4.1_C4.1_H4.1_A4.1_F4.1_[+8CCT]_T4.1 (ssRNA)
RNA: UCUCUUUGUAUAUUCCUAUCUCUU
B47: Ie_S1_P4E.1_K4.1_C4.1_H4.1_[+4CCCT]_A4.1_F4.1_T4.1 (ssRNA)
RNA: UCUCUUUGUACCCUUAUUAUCUCUU
B48: Ie_S1_P4E.1_K4.1_C4.1_H4.1_A4.1_[+6CTCT]_F4.1_T4.1 (ssRNA)
RNA: UCUCUUUGUAUACUCUUUAUCUCUU
B49: Ie_S1_P4E.1_K4.1_C4.1_H4.1_A4.1_[+5CCC]_F4.1_T4.1 (ssRNA)
RNA: UCUCUUUGUAUCCCAUUAUCUCUU
B50: Ic_S2_P3E.1_K3.1_C3.1_H3.1_A3.1_F3.1_[T7C]_[A8G]_T3.1 (ssRNA)
RNA: UUUGAUUAAUAUGAUAUCGUUCUUUCUUGUAUACGUUCUUUCUCGAUAUCAUAUUAAUCUUU
B51: Ic_S2_P3E.1_K3.1_C3.1_H3.1_A3.1_F3.1_[T7A]_[A8T]_T3.1 (ssRNA)
RNA: B50 RNA with C34A, G35U
B52: Ib_S2_P3E.1_K3.1_C3.1_H3.1_A3.1_F3.1_[T7C]_[A8T]_T3.1 (ssRNA)
RNA: B50 RNA with G35U
B53: Ic_S2_P3E.1_K3.1_C3.1_H3.1_A3.1_F3.1_[T7C]_[A8C]_T3.1 (ssRNA)
RNA: B50 RNA with G35C
B54: Ib_S2_P3E.1_K3.1_C3.1_H3.1_[T1C]_A3.1_F3.1_[T7C]_T3.1 (ssRNA)
RNA: B50 RNA with U28C, G35A
B55: Ic_S2_P3E.1_K3.1_C3.1_H3.1_A3.1_F3.1_[T7A]_[A8C]_T3.1 (ssRNA)
RNA: B50 RNA with C34A, G35C
B56: Ia_S2_P3E.1_K3.1_C3.1_H3.1_[T1C]_A3.1_F3.1_T3.1 (ssRNA)
RNA: B50 RNA with U28C, C34U, G35A
B57: Ie_S1_P4E.1_K4.1_C4.1_H4.1_[+4CCT]_A4.1_F4.1_T4.1 (ssRNA)
RNA: UCUCUUUGUACCUUAUUAUCUCUU
B58: Ie_S1_P5E.1_K5.1_C5.1_H5.1_[+4TT]_A5.1_F5.1_T5.1 (ssRNA)
RNA: UCUCUUUGUAUUUUAUUAUCUCUU
B59: Ie_S1_P5E.1_K5.1_C5.1_H5.1_A5.1_[+6CTC]_F5.1_T5.1 (ssRNA)
RNA: UCUCUUUGUAUUCUCAUUAUCUCUU
B60: Ie_S1_P4E.1_K4.1_C4.1_H4.1_[+4CCC]_A4.1_F4.1_T4.1 (ssRNA)
RNA: UCUCUUUGUACCCUAUUAUCUCUU

Molecular target: T1, PUF4 RNA-binding domain
Test: Mg; RNA-MaP; 20 mM Na-HEPES pH 7.4, 30 mM KOAc, 0.75 mM MgCl2, 0.1% Tween-20, 5% glycerol, 0.1 mg/mL BSA, 2 mM DTT; 25 C; 0.0125-409.6 nM protein
Settings: tags: N-His6-TEV cleaved; C-SNAP kept, Cy3B-labelled; label: tethered on chip by stalled RNA polymerase

Row | Binder | Kd [nM]
1 | B1 | 4
2 | B2 | 4.6
3 | B3 | 37.1
4 | B4 | 8.94
5 | B5 | 16.2
6 | B6 | 16.4
7 | B7 | 6.9
8 | B8 | 13.2
9 | B9 | 38.3
10 | B10 | 5.4
11 | B11 | 3.27
12 | B12 | 48.6
13 | B13 | 14.2
14 | B14 | 14.3
15 | B15 | 22.9
16 | B16 | 10.9
17 | B17 | 41.5
18 | B18 | 27.5
19 | B19 | 31.9
20 | B20 | 6.8

Row | Binder | Kd [nM]
21 | B21 | 41
22 | B22 | 96.6
23 | B23 | 27.7
24 | B24 | 5.92
25 | B25 | 10.3
26 | B26 | 39.7
27 | B27 | 5.93
28 | B28 | 19
29 | B29 | 14.7
30 | B30 | 20
31 | B31 | 24.4
32 | B32 | 6.67
33 | B33 | 8.34
34 | B34 | 13.9
35 | B35 | 15.9
36 | B36 | 6.55
37 | B37 | 23.9
38 | B38 | 12.7
39 | B39 | 62
40 | B40 | 4.68

Row | Binder | Kd [nM]
41 | B41 | 21.8
42 | B42 | 13.7
43 | B43 | 35.3
44 | B44 | 2.73
45 | B45 | 17.8
46 | B46 | 8.2
47 | B47 | 6.31
48 | B48 | 12.6
49 | B49 | 76.1
50 | B50 | 35.1
51 | B51 | 6.77
52 | B52 | 3.86
53 | B53 | 21.1
54 | B54 | 649
55 | B55 | 27.7
56 | B56 | 136
57 | B57 | 4.83
58 | B58 | 2.74
59 | B59 | 33.8
60 | B60 | 5.85
